Results: the supplement of paper PMC5998384

Experiments:
HeLa Kyoto [1] = test: solubility in G1/S (NP-40 vs SDS abundance) (log2 ratio); higher = more soluble; details: cell cycle stage: G1/S
HeLa Kyoto [2] = test: melting temperature (median over replicates), in situ; higher = more thermally stable
HeLa Kyoto [3] = test: solubility change mitosis vs G1/S (difference of NP-40 vs SDS log2 ratios) (log2 ratio difference); higher = more soluble in mitosis
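Wherever melting temperature (median over replicates), in situ is given: HeLa Kyoto cells synchronized by double thymidine or nocodazole block, proteins quantified by TMT10plex mass spectrometry, three independent biological replicates.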
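Wherever solubility change mitosis vs G1/S (difference of NP-40 vs SDS log2 ratios) is given: synchronized HeLa Kyoto cells (double thymidine block for G1/S, nocodazole release for mitosis), protein amounts in NP-40 versus SDS lysates quantified by mass spectrometry, three biological replicates.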
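Wherever solubility in G1/S (NP-40 vs SDS abundance) is given: HeLa Kyoto cells arrested at G1/S by double thymidine block, proteins quantified by TMT10plex mass spectrometry in mild NP-40 versus SDS extracts, three biological replicates.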

Substance	solubility in G1/S (log2) (HeLa Kyoto [1])	melting temperature (HeLa Kyoto [2]; cell cycle stage: mitosis)	solubility change mitosis (log2) (HeLa Kyoto [3])	melting temperature (HeLa Kyoto [2]; cell cycle stage: G1/S)
MKGLGDSRPRHLSDSLDPPHEPLFAGTDRNPYLLSPTEAFAREARFPGQNTLPGDGLFPLNNQLPPPSSTFPRIHYNSHFEVPEESPFPSHAQATKINRLPANLLDQFEKQLPIHRDGFSTLQFPRGEAKARGESPGRIRHLVHSVQRLFFTKAPSLEGTAGKVGGNGSKKGGMEDGKGRRAKSKERAKAGEPKRRSRSNISGWWSSDDNLDGEAGAFRSSGPASGLMTLGRQAERSQPRYFMHAYNTISGHMLKTTKNNTTELTAPPPPPAPPATCPSLGVGTDTNYVKRGSWSTLTLSHAHEVCQKTSATLDKSLLKSKSCHQGLAYHYLQVPGGGGEWSTTLLSPRETDAAAEGPIPCRRMRSGSYIKAMGDEDSDESGGSPKPSPKTAARRQSYLRATQQSLGEQSNPRRSLDRLDSVDMLLPSKCPSWEEDYTPVSDSLNDSSCISQIFGQASLIPQLFGHEQQVREAELSDQYEAACESACSEAESTAAETLDLPLPSYFRSRSHSYLRAIQAGCSQEEDSVSLQSLSPPPSTGSLSNSRTLPSSSCLVAYKKTPPPVPPRTTSKPFISVTVQSSTESAQDTYLDSQDHKSEVTSQSGLSNSSDSLDSSTRPPSVTRGGVAPAPEAPEPPPKHAALKSEQGTLTSSESHPEAAPKRKLSSIGIQVDCIQPVPKEEPSPATKFQSIGVQVEDDWRSSVPSHSMSSRRDTDSDTQDANDSSCKSSERSLPDCTPHPNSISIDAGPRQAPKIAQIKRNLSYGDNSDPALEASSLPPPDPWLETSSSSPAEPAQPGACRRDGYWFLKLLQAETERLEGWCCQMDKETKENNLSEEVLGKVLSAVGSAQLLMSQKFQQFRGLCEQNLNPDANPRPTAQDLAGFWDLLQLSIEDISMKFDELYHLKANSWQLVETPEKRKEEKKPPPPVPKKPAKSKPAVSRDKASDASDKQRQEARKRLLAAKRAASVRQNSATESADSIEIYVPEAQTRL [DLGAP4]	0.269	55.5 °C	-0.0211	–
MASTGSQASDIDEIFGFFNDGEPPTKKPRKLLPSLKTKKPRELVLVIGTGISAAVAPQVPALKSWKGLIQALLDAAIDFDLLEDEESKKFQKCLHEDKNLVHVAHDLIQKLSPRTSNVRSTFFKDCLYEVFDDLESKMEDSGKQLLQSVLHLMENGALVLTTNFDNLLELYAADQGKQLESLDLTDEKKVLEWAQEKRKLSVLHIHGVYTNPSGIVLHPAGYQNVLRNTEVMREIQKLYENKSFLFLGCGWTVDDTTFQALFLEAVKHKSDLEHFMLVRRGDVDEFKKLRENMLDKGIKVISYGDDYADLPEYFKRLTCEISTRGTSAGMVREGQLNGSSAAHSEIRGCST [FAM118B]	0.418	50.5 °C	-0.123	49.3 °C
MVNSSRVQPQQPGDAKRPPAPRAPDPGRLMAGCAAVGASLAAPGGLCEQRGLEIEMQRIRQAAARDPPAGAAASPSPPLSSCSRQAWSRDNPGFEAEEEEEEVEGEEGGMVVEMDVEWRPGSRRSAASSAVSSVGARSRGLGGYHGAGHPSGRRRRREDQGPPCPSPVGGGDPLHRHLPLEGQPPRVAWAERLVRGLRGLWGTRLMEESSTNREKYLKSVLRELVTYLLFLIVLCILTYGMMSSNVYYYTRMMSQLFLDTPVSKTEKTNFKTLSSMEDFWKFTEGSLLDGLYWKMQPSNQTEADNRSFIFYENLLLGVPRIRQLRVRNGSCSIPQDLRDEIKECYDVYSVSSEDRAPFGPRNGTAWIYTSEKDLNGSSHWGIIATYSGAGYYLDLSRTREETAAQVASLKKNVWLDRGTRATFIDFSVYNANINLFCVVRLLVEFPATGGVIPSWQFQPLKLIRYVTTFDFFLAACEIIFCFFIFYYVVEEILEIRIHKLHYFRSFWNCLDVVIVVLSVVAIGINIYRTSNVEVLLQFLEDQNTFPNFEHLAYWQIQFNNIAAVTVFFVWIKLFKFINFNRTMSQLSTTMSRCAKDLFGFAIMFFIIFLAYAQLAYLVFGTQVDDFSTFQECIFTQFRIILGDINFAEIEEANRVLGPIYFTTFVFFMFFILLNMFLAIINDTYSEVKSDLAQQKAEMELSDLIRKGYHKALVKLKLKKNTVDDISESLRQGGGKLNFDELRQDLKGKGHTDAEIEAIFTKYDQDGDQELTEHEHQQMRDDLEKEREDLDLDHSSLPRPMSSRSFPRSLDDSEEDDDEDSGHSSRRRGSISSGVSYEEFQVLVRRVDRMEHSIGSIVSKIDAVIVKLEIMERAKLKRREVLGRLLDGVAEDERLGRDSEIHREQMERLVREELERWESDDAASQISHGLGTPVGLNGQPRPRSSRPSSSQSTEGMEGAGGNGSSNVHV [PKD2]	0.00411	–	-0.0995	52.1 °C
MEPAGPCGFCPAGEVQPARYTCPRCNAPYCSLRCYRTHGTCAENFYRDQVLGELRGCSAPPSRLASALRRLRQQRETEDEPGEAGLSSGPAPGGLSGLWERLAPGEKAAFERLLSRGEAGRLLPPWRPWWWNRGAGPQLLEELDNAPGSDAAELELAPARTPPDSVKDASAAEPAAAERVLGDVPGACTPVVPTRIPAIVSLSRGPVSPLVRFQLPNVLFAYAHTLALYHGGDDALLSDFCATLLGVSGALGAQQVFASAEEALQAAAHVLEAGEHPPGPLGTRGAMHEVARILLGEGPTNQKGYTLAALGDLAQTLGRARKQAVAREERDHLYRARKKCQFLLAWTNENEAALTPLALDCARAHQAHAVVAEEVAALTGELERLWGGPVPPAPRTLIEELPS [ZNHIT2]	0.384	49.4 °C	0.141	48.9 °C
MTGGRFDFDDGGTYCGGWEEGKAHGHGICTGPKGQGEYSGSWSHGFEVVGGYTWPSGNTYQGYWAQGKRHGLGVETKGKWMYRGEWSHGFKGRYGVRQSLCTPARYEGTWSNGLQDGYGVETYGDGGTYQGQWAGGMRHGYGVRQSVPYGMATVIRSPLRTSLASLRSEQSNGSVLHDAAAAADSPAGTRGGFVLNFHADAELAGKKKGGLFRRGSLLGSMKLRKSESKSSISSKRSSVRSDAAMSRISSSDANSTISFGDVDCDFCPVEDHVDATTTETYMGEWKNDKRNGFGVSERSNGMKYEGEWANNKRHGYGCTVFPDGSKEEGKYKNNILVRGIRKQLIPIRHTKTREKVDRAIEGAQRAAAMARTKVEIANSRTAHARAKADAADQAALAARQECDIARAVARELSPDFYQPGPDYVKQRFQEGVDAKENPEEKVPEKPPTPKESPHFYRKGTTPPRSPEASPKHSHSPASSPKPLKKQNPSSGARLNQDKRSVADEQVTAIVNKPLMSKAPTKEAGAVVPQSKYSGRHHIPNPSNGELHSQYHGYYVKLNAPQHPPVDVEDGDGSSQSSSALVHKPSANKWSPSKSVTKPVAKESKAEPKAKKSELAIPKNPASNDSCPALEKEANSGPNSIMIVLVMLLNIGLAILFVHFLT [JPH1]	-0.419	51.7 °C	0.108	–
MAFWCQRDSYAREFTTTVVSCCPAELQTEGSNGKKEVLSGFQVVLEDTVLFPEGGGQPDDRGTINDISVLRVTRRGEQADHFTQTPLDPGSQVLVRVDWERRFDHMQQHSGQHLITAVADHLFKLKTTSWELGRFRSAIELDTPSMTAEQVAAIEQSVNEKIRDRLPVNVRELSLDDPEVEQVSGRGLPDDHAGPIRVVNIEGVDSNMCCGTHVSNLSDLQVIKILGTEKGKKNRTNLIFLSGNRVLKWMERSHGTEKALTALLKCGAEDHVEAVKKLQNSTKILQKNNLNLLRDLAVHIAHSLRNSPDWGGVVILHRKEGDSEFMNIIANEIGSEETLLFLTVGDEKGGGLFLLAGPPASVETLGPRVAEVLEGKGAGKKGRFQGKATKMSRRMEAQALLQDYISTQSAKE [AARSD1]	0.18	49.9 °C	-0.0164	49.8 °C
MGLHLRPYRVGLLPDGLLFLLLLLMLLADPALPAGRHPPVVLVPGDLGNQLEAKLDKPTVVHYLCSKKTESYFTIWLNLELLLPVIIDCWIDNIRLVYNKTSRATQFPDGVDVRVPGFGKTFSLEFLDPSKSSVGSYFHTMVESLVGWGYTRGEDVRGAPYDWRRAPNENGPYFLALREMIEEMYQLYGGPVVLVAHSMGNMYTLYFLQRQPQAWKDKYIRAFVSLGAPWGGVAKTLRVLASGDNNRIPVIGPLKIREQQRSAVSTSWLLPYNYTWSPEKVFVQTPTINYTLRDYRKFFQDIGFEDGWLMRQDTEGLVEATMPPGVQLHCLYGTGVPTPDSFYYESFPDRDPKICFGDGDGTVNLKSALQCQAWQSRQEHQVLLQELPGSEHIEMLANATTLAYLKRVLLGP [PLA2G15]	0.446	56.1 °C	0.0116	54.7 °C
PTPRS	0.148	–	-0.268	51.6 °C
MAALGRPFSGLPLSGGSDFLQPPQPAFPGRAFPPGADGAELAPRPGPRAVPSSPAGSAARGRVSVHCKKKHKREEEEDDDCPVRKKRITEAELCAGPNDWILCAHQDVEGHGVNPSVSGLSIPGILDVICEEMDQTTGEPQCEVARRKLQEIEDRIIDEDEEVEADRNVNHLPSLVLSDTMKTGLKREFDEVFTKKMIESMSRPSMELVLWKPLPELLSDKPKPSSNTKNYTGESQAKHVAAGTAFPQRTELFSEPRPTGMSLYNSLETATSTEEEMEL [CCDC117]	0.515	53.2 °C	0.183	51.6 °C
MPVTHRKSDASDMNSDTSPSCRLRAFSRGGSLESRSSSSRSRSFTLDDESLKYLTHEEKDVLLFFEETIDSLDEDFEEPVLCDGGVCCLCSPSLEESTSSPSEPEDVIDLVQPAPGAGEAEGLPEGTQAAGPAPAGKEHRKQDAETPPPPDPPAPETLLAPPPLPSTPDPPRRELRAPSPPVEHPRLLRSVPTPLVMAQKISERMAGNEALSPTSPFREGRPGEWRTPAARGPRSGDPGPGPSHPAQPKAPRFPSNIIVTNGAAREPRRTLSRAAVSVQERRAQVLATIHGHAGAFPAAGDAGEGAPGGGSSPERVARGRGLPGPAESLRAGGQAPRGPALANGFPSAHEALKSAPSSFAPAGKSLCFRPGPALPSTRARQSFPGPRQPNGAQDWRRADSLPRPQGITVQFAGRGSSEEARREALRKLGLLRESS [PROSER2]	0.405	51.3 °C	-0.0862	48.6 °C
MELFQAKDHYILQQGERALWCSRRDGGLQLRPATDLLLAWNPICLGLVEGVIGKIQLHSDLPWWLILIRQKALVGKLPGDHEVCKVTKIAVLSLSEMEPQDLELELCKKHHFGINKPEKIIPSPDDSKFLLKTFTHIKSNVSAPNKKKVKESKEKEKLERRLLEELLKMFMDSESFYYSLTYDLTNSVQRQSTGERDGRPLWQKVDDRFFWNKYMIQDLTEIGTPDVDFWIIPMIQGFVQIEELVVNYTESSDDEKSSPETPPQESTCVDDIHPRFLVALISRRSRHRAGMRYKRRGVDKNGNVANYVETEQLIHVHNHTLSFVQTRGSVPVFWSQVGYRYNPRPRLDRSEKETVAYFCAHFEEQLNIYKKQVIINLVDQAGREKIIGDAYLKQVLLFNNSHLTYVSFDFHEHCRGMKFENVQTLTDAIYDIILDMKWCWVDEAGVICKQEGIFRVNCMDCLDRTNVVQAAIARVVMEQQLKKLGVMPPEQPLPVKCNRIYQIMWANNGDSISRQYAGTAALKGDFTRTGERKLAGVMKDGVNSANRYYLNRFKDAYRQAVIDLMQGIPVTEDLYSIFTKEKEHEALHKENQRSHQELISQLLQSYMKLLLPDDEKFHGGWALIDCDPSLIDATHRDVDVLLLLSNSAYYVAYYDDEVDKVNQYQRLSLENLEKIEIGPEPTLFGKPKFSCMRLHYRYKEASGYFHTLRAVMRNPEEDGKDTLQCIAEMLQITKQAMGSDLPIIEKKLERKSSKPHEDIIGIRSQNQGSLAQGKNFLMSKFSSLNQKVKQTKSNVNIGNLRKLGNFTKPEMKVNFLKPNLKVNLWKSDSSLETMENTGVMDKVQAESDGDMSSDNDSYHSDEFLTNSKSDEDRQLANSLESVGPIDYVLPSCGIIASAPRLGSRSQSLSSTDSSVHAPSEITVAHGSGLGKGQESPLKKSPSAGDVHILTGFAKPMDIYCHRFVQDAQNKVTHLSETRSVSQQASQERNQMTNQVSNETQSESTEQTPSRPSQLDVSLSATGPQFLSVEPAHSVASQKTPTSASSMLELETGLHVTPSPSESSSSRAVSPFAKIRSSMVQVASITQAGLTHGINFAVSKVQKSPPEPEIINQVQQNELKKMFIQCQTRIIQI [INPP5F]	-0.015	49.3 °C	-0.171	51.3 °C
